The source of these data is IntAct's records for PubMed 24520911.

The chains are these.
B1: Lon protease homolog, mitochondrial (Homo sapiens), P36776 (parent)
chain: MAASTGYVRLWGAARCWVLRRPMLAAAGGRVPTAAGAWLLRGQRTCDASPPWALWGRGPAIGGQWRGFWEASSRGGGAFSGGEDASEGGAEEGAGGAGGSAGAGEGPVITALTPMTIPDVFPHLPLIAITRNPVFPRFIKIIEVKNKKLVELLRRKVRLAQPYVGVFLKRDDSNESDVVESLDEIYHTGTFAQIHEMQDLGDKLRMIVMGHRRVHISRQLEVEPEEPEAENKHKPRRKSKRGKKEAEDELSARHPAELAMEPTPELPAEVLMVEVENVVHEDFQVTEEVKALTAEIVKTIRDIIALNPLYRESVLQMMQAGQRVVDNPIYLSDMGAALTGAESHELQDVLEETNIPKRLYKALSLLKKEFELSKLQQRLGREVEEKIKQTHRKYLLQEQLKIIKKELGLEKDDKDAIEEKFRERLKELVVPKHVMDVVDEELSKLGLLDNHSSEFNVTRNYLDWLTSIPWGKYSNENLDLARAQAVLEEDHYGMEDVKKRILEFIAVSQLRGSTQGKILCFYGPPGVGKTSIARSIARALNREYFRFSVGGMTDVAEIKGHRRTYVGAMPGKIIQCLKKTKTENPLILIDEVDKIGRGYQGDPSSALLELLDPEQNANFLDHYLDVPVDLSKVLFICTANVTDTIPEPLRDRMEMINVSGYVAQEKLAIAERYLVPQARALCGLDESKAKLSSDVLTLLIKQYCRESGVRNLQKQVEKVLRKSAYKIVSGEAESVEVTPENLQDFVGKPVFTVERMYDVTPPGVVMGLAWTAMGGSTLFVETSLRRPQDKDAKGDKDGSLEVTGQLGEVMKESARIAYTFARAFLMQHAPANDYLVTSHIHLHVPEGATPKDGPSAGCTIVTALLSLAMGRPVRQNLAMTGEVSLTGKILPVGGIKEKTIAAKRAGVTCIVLPAENKKDFYDLAAFITEGLEVHFVEHYREIFDIAFPDEQAEALAVER
partner: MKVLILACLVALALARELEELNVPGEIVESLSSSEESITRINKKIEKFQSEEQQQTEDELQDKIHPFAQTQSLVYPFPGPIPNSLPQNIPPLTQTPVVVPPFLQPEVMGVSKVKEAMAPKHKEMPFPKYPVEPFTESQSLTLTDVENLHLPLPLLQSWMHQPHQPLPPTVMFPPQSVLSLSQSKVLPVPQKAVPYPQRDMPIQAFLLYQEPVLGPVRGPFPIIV

In the first experiment the parent is B1. The following applies: with casb_bovin CSN2, P02666.
As for G893P, the “effect of a mutation on the interaction” value was “decreasing interaction”.

The variants in the next experiment derive from B1. The settings on record: with casb_bovin CSN2, P02666. This is another data set of the same source.
For the variant G893P;G894A, the “effect of a mutation on the interaction” value was “decreasing interaction”.

The next experiment covers variants of B1. The settings on record: with casb_bovin CSN2, P02666. The source holds these as a separate data set.
Regarding W770P, the “effect of a mutation on the interaction” value is listed as “decreasing interaction”.

Variants of B1 are the subject of the next experiment. The following applies: with casb_bovin CSN2, P02666. The source holds these as a separate data set.
Regarding G893A;G894P, the “effect of a mutation on the interaction” value was “decreasing interaction”.

The variants in the next experiment derive from B1. The following applies: with casb_bovin CSN2, P02666. This is another data set of the same source.
For G894P, the “effect of a mutation on the interaction” value is on record as “decreasing interaction”.

In a further experiment the parent is B1. The following applies: with casb_bovin CSN2, P02666. The source holds these as a separate data set.
For K529R, the “effect of a mutation on the interaction” value is listed as “decreasing interaction”.
